Results on one molecule are retold here after patent US20240239902A1.

The test deals with NKG2D on effector cells (NK cells, MNC) (human) (UniProt P26718). Put plainly: cell-based or functional assay.
UniProt P26718, sequence (P26718 whole entry): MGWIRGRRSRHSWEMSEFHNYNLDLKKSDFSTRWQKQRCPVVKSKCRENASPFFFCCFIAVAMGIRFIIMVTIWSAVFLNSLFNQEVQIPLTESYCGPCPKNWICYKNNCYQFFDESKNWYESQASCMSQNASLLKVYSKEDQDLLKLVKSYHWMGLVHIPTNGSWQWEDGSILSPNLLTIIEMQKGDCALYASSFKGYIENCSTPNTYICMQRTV

B1: bispecific antibody [CD20×NKG2D #3] (bispecific antibody, part only; not given: constant regions, Fab-scFv linker, tags, not shown: another chain or arm of the molecule; a dimerising Fc or GST; small tags and cut ends)
VH: QVQLQQPGAELVKPGASVKMSCKASGYTFTSYNMHWVKQTPGRGLEWIGAIYPGNGDTSYNQKFKGKATLTADKSSSTAYMQLSSLTSEDSAVYYCARSTYYGGDWYFNVWGAGTTVTVSS
VL: QIVLSQSPAILSASPGEKVTMTCRASSSVSYIHWFQQKPGSSPKPWIYATSNLASGVPVRFSGSGSGTSYSLTISRVEAEDAATYYCQQWTSNPPTFGGGTKLEIK
scFv: QVQLVQSGAEVKKPGASVKVSCKASGYTFTSYGISWVRQAPGQGLEWMGGIIPIFGTANYAQKFQGRVTITADESTSTAYMELSSLRSEDTAVYYCAKDLYDYVWGSYRPNWYFDLWGRGTLVTVSSGSASAPKLEEGEFSEARVSSELTQDPAVSVALGQTVRITCQGDSLRGYYASWYQQKPGQAPVLVTYGNNKRPSGIPDRFSGSSSGNTASLTITGTQAEDEADYYCNSRDNNGNFVIFGGGTKLTVL
Take B1: the maximum lysis, CD19-DE mediated ADCC against GRANTA-519 with MNC, in combination with the bsAb (4 h 51Cr release) stood at 24.5%.
